Results as given in the supplement of paper PMC10567573.

B1: NCF4 (parent)
chain: FGPDSKSSALACTLPTLPAKVYVG
B2: NEK8 (parent)
chain: VVGTPCYISPELCEGKPYNQKSDI

Variants of: B1
Assay: protein stability index of a GFP-peptide fusion (GPS, HEK-293T) (PSI 1-6); higher = more stable
Details: c terminus: a fixed tail appended
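Further: lentivirally expressed fusions sorted by FACS into six bins by GFP to DsRed ratio, PSI derived from sequencing read proportions per bin multiplied by bin number.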

Protein stability index: each site, then its substitutions
F1: A 3.11; Y 2.7; L 2.99; P 3.32; M 2.68; T 3.47; I 2.64; W 2.63; D 3.56; G 3.58; H 3.84; N 3.69
D4: L 2.15; E 2.05; C 2.11; T 2.14; K 2.48; H 1.18; I 2.15; Y 1.8; G 2.1; A 1.82; Q 2.26; F 1.58; W 1.18; V 1.75; P 2.23; S 2.04; M 2.19; N 1.84; R 2.1
S7: E 2.72; M 2.25; C 1.69; F 2.9; Q 3.06; W 1.97; A 1.9; N 2.23; D 2.9; V 1.73; I 1.56; G 2.37; T 2.37; Y 1.06; H 1.57; K 2.35; P 1.97; L 2.07; R 2.35
S8: L 1.98; V 2.22; K 1.85; F 2.86; N 2.32; H 1.67; M 2.08; W 2.65; E 3.36; P 2.22; Y 4.4; I 2.44; R 3.19; C 2.44; A 2.32; D 2.7; Q 2.29; G 2.77; T 1.89

Variants of: B2
Assay: as above
Details: c terminus: a fixed tail appended

Protein stability index, by site and new letter:
D23: A 2.74; Y 2.44; P 2.35; R 2.29; Q 2.36; F 2.04; C 2.93; W 1.25; V 2.02; T 2.63; I 2.19; G 1.82; E 2.47; H 2.94; L 2.15; N 2.56; M 2.18; K 3.02; S 2.17
I24: T 3.97; A 3.45; S 3.56; H 3.18; G 3.4; Y 3.08; E 2.94; V 3.27; K 3.63; C 2.91; F 2.51; W 2.63; P 3.18; M 2.95; D 4.21; Q 3.33; L 2.79; R 3.51; N 3.35
S22: Q 2.85; H 2.77; D 3.05; A 2.48; T 2.95; C 2.52; R 3.01; W 1.26; E 3.31; V 2.36; K 3.12; L 2.63; N 2.58; P 3.08; Y 2.37; I 2.5; M 2.51; G 2.67; F 2.5
Q20: D 2.54; V 2.79; C 2.57; T 2.48; F 1.85; S 2.49; G 2.71; Y 2.14; H 2.59; K 3.15; L 2.55; R 2.84; I 2.24; A 2.44; E 2.63; W 1.89; N 3.3; P 2.31; M 2.22
K21: S 3.01; T 2.48; P 2.45; C 2.51; G 2.79; M 2.07; F 1.75; I 1.97; Q 2.92; W 2.65; R 2.26; V 1.99; Y 2.2; A 2.99; D 2.93; L 2.41; H 2.86; E 2.48; N 2.85
N19: W 2.02; Y 2.39; V 2.73
